Measurements from patent US20240041978A1, “LA PROTEIN AS A NOVEL REGULATOR OF OSTEOCLASTOGENESIS” (The U.S.A., as Represented by the Secretary, Department of …, priority 2021, published 2024).
Where a chain is given by its changes, count along the chain named. Numbers in names are those of the source.

T1: La protein (Lupus autoantigen), native, in lysates of fusing human osteoclasts (human, UniProt P05455 1-408, limits assumed)
T1 construct: Endogenous La from monocyte-derived human osteoclasts 3 days post-RANKL; also called native La; SSB
T1 sequence: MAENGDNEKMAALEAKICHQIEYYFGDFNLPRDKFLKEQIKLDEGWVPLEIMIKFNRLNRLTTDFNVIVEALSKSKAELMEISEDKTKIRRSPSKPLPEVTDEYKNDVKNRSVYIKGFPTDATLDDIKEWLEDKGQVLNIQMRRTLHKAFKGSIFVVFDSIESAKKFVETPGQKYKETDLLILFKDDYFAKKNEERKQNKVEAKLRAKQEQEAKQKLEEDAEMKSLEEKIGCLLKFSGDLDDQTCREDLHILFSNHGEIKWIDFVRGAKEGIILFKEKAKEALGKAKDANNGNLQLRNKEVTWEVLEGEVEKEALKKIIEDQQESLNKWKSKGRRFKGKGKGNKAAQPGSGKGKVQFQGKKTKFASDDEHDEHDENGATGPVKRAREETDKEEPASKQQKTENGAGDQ

B1: D371A,D374A La: uncleavable mutant of FL La, caspase cleavage sites disrupted, overexpressed from plasmid (protein, UniProt P05455 1-408, looked up, variant D371A D374A)
chain: T1 sequence with D371A, D374A
modifications: full-length
notes: uncleavable mutant of FL La, caspase cleavage sites disrupted, overexpressed from plasmid
B2: La 1-375: amino acids 1-375 of human La lacking NLS; recombinant protein or overexpressed from FLAG plasmid (protein, listed as Homo sapiens)
chain: MAENGDNEKMAALEAKICHQIEYYFGDFNLPRDKFLKEQIKLDEGWVPLEIMIKFNRLNRLTTDFNVIVEALSKSKAELMEISEDKTKIRRSPSKPLPEVTDEYKNDVKNRSVYIKGFPTDATLDDIKEWLEDKGQVLNIQMRRTLHKAFKGSIFVVFDSIESAKKFVETPGQKYKETDLLILFKDDYFAKKNEERKQNKVEAKLRAKQEQEAKQKLEEDAEMKSLEEKIGCLLKFSGDLDDQTCREDLHILFSNHGEIKWIDFVRGAKEGIILFKEKAKEALGKAKDANNGNLQLRNKEVTWEVLEGEVEKEALKKIIEDQQESLNKWKSKGRRFKGKGKGNKAAQPGSGKGKVQFQGKKTKFASDDEHDEHDE
B3: La 1-375 RNAΔ: La 1-375 with three point mutations impairing La domain RNA binding (protein, UniProt P05455 1-375, looked up, variant Q20A Y24A D33I)
chain: B2 chain with Q20A, Y24A, D33I
B4: Annexin A1 (Anx A1), native, in fusing human osteoclasts (other, UniProt P04083 2-346, looked up)
chain: AMVSEFLKQAWFIENEEQEYVQTVKSSKGGPGSAVSPYPTFNPSSDVAALHKAIMVKGVDEATIIDILTKRNNAQRQQIKAAYLQETGKPLDETLKKALTGHLEEVVLALLKTPAQFDADELRAAMKGLGTDEDTLIEILASRTNKEIRDINRVYREELKRDLAKDITSDTSGDFRNALLSLAKGDRSEDFGVNEDLADSDARALYEAGERRKGTDVNVFNTILTTRSYPQLRRVFQKYTKYSKHDMNKVLDLELKGDIEKCLTAIVKCATSKPAFFAEKLHQAMKGVGTRHKALIRIMVSRSEIDMNDIKAFYQKMYGISLCQAILDETKGDYEKILVALCGGN
B5: Annexin A4 (Anx A4), native, in fusing human osteoclasts (other, UniProt P09525 2-319, looked up)
chain: ATKGGTVKAASGFNAMEDAQTLRKAMKGLGTDEDAIISVLAYRNTAQRQEIRTAYKSTIGRDLIDDLKSELSGNFEQVIVGMMTPTVLYDVQELRRAMKGAGTDEGCLIEILASRTPEEIRRISQTYQQQYGRSLEDDIRSDTSFMFQRVLVSLSAGGRDEGNYLDDALVRQDAQDLYEAGEKKWGTDEVKFLTVLCSRNRNHLLHVFDEYKRISQKDIEQSIKSETSGSFEDALLAIVKCMRNKSAYFAEKLYKSMKGLGTDDNTLIRVMVSRAEIDMLDIRAHFKRLYGKSLYSFIKGDTSGDYRKVLLVLCGGDD

Legend:
[1] = system: human, monocyte-derived osteoclasts; assay: Bone resorption assay (fluoresceinamine-labeled chondroitin sulfate on calcium phosphate-coated plates); assay type: cell-based; conditions: for bone resorption: overexpression, normalized to empty plasmid
Description: There is a relationship between osteoclast fusion and bone resorption (Makris and Saffar, Arch Oral Biol 27, 965-969, doi:10.1016/0003-9969(82)90104-2 (1982); Piper et al., Anat Embryol (Berl) 186, 291-299, doi:10.1007/BF00185977 (1992); Moller et al., Int J Mol Sci 21, doi:10.3390/ijms21176368 (2020)). It was hypothesized that by regulating osteoclast size, La also regulates bone resorption. This hypothesis was evaluated by differentiating osteoclasts on fluoresceinated calcium phosphate, a biomimetic of bone, and assessed osteoclast-dependent bone resorption by the release of fluorescein into the media (FIG. 5A). […] Overexpression of La 1-375 promoted bone resorption, while the uncleavable La mutant, D371,374A, had no effect (FIG. 5B).
Bone Resorption: Bone resorption was evaluated using bone resorption assay kits from Cosmo Bio USA according to the manufacturer's instructions. Briefly, fluoresceinamine-labeled chondroitin sulfate was used to label 24-well, calcium phosphate-coated plates. Human, monocyte-derived osteoclasts were differentiated as described above, using alpha MEM without phenol red. Media were collected at 4-5 days post RANKL addition, and fluorescence intensity within the media was evaluated as recommended by the manufacture.

[2] = system: human monocyte-derived osteoclasts; assay: Osteoclast fusion assay (number of fusion events, fluorescence microscopy); assay type: cell-based; conditions: for osteoclast fusion (fusion events in syncytia with 3+ nuclei): overexpression from expression plasmid vs empty plasmid, human osteoclasts; for formation of multinucleated syncytia (osteoclast fusion): recombinant protein ~40 nM added end of day 2 post-RANKL, overnight
Description: Osteoclasts: Elutriated monocytes from healthy donors were obtained. Cells were plated at 2.9×10^5 per cm^2 in 35 mm dishes with polymer coverslip bottoms (Ibidi #81156) for imaging or 35 mm or 10 cm dishes for biochemical experiments in complete media [α-MEM supplemented with 10% Fetal Bovine Serum (FBS) and penicillin-streptomycin-L-glutamine (Gibco Invitrogene #12571063; #26140079 and #10378016, respectively)]. Monocytes were differentiated to M2 macrophages in the presence of 100 ng/ml M-CSF for 6 days and then differentiated with 100 ng/ml M-CSF and 100 ng/ml RANKL for 3 days unless indicated otherwise. RAW 264.7 cells (ATCC, Manassas, VA, #TIB-71) were maintained in DMEM supplemented with 10% FBS to a maximum of 8 passages. RAW 264.7 cells were differentiated to osteoclasts in the presence of 100 ng/ml murine RANKL for 5 days. To separate unfused mononucleated and fused, multinucleated RAW 264.7 cells into separate fractions, advantage was taken of the much stronger adherence of multinucleated cells to culture dish plastic. After washing in PBS, mixed RAW cultures (following RANKL differentiation) were left in Ca^2+ and Mg^2+ free PBS for 10 minutes at room temperature. Culture dishes were then tapped on the lab bench and a large portion of unfused, mononucleated RAW cells were released, and these released cells were collected via centrifugation. This process was repeated 2-4 times until dishes were left with a population of primarily fused, multinucleated syncytia. Mononucleated and multinucleated cell fractions were then processed for biochemical or imaging experiments as described below.
Constructs & Recombinant proteins & Transfection: Recombinant La 1-408, 1-375, 1-375 Q20A_Y24A_D33I, 1-187 and 188-375 were amplified with primers designed with overlapping sequences and inserted between NdeI/HindIII in the V78 pET28A E. coli expression vector, adding to each a N-terminal 6×his affinity tag. La 1-408 was expressed as a recombinant protein in E. coli and purified using IMAC columns by SD Biosciences (San Diego, CA). The remaining constructs were transformed into BL2 (DE3) chemically competent E. coli (Thermo Fisher Scientific) and protein expression was induced with IPTG. Cells were lysed with Bugbuster (Sigma), and 6×his-La proteins were affinity purified using HisPur Cobalt Spin columns (Thermo Fisher Scientific), each according to the manufacturer's instructions. Endotoxin contaminates were depleted from affinity purified 6×his-La proteins using Pierce high-capacity endotoxin removal columns (Thermo Fisher Scientific), according to the manufacturer's instructions. Proteins were then sterile filtered, aliquoted and kept at −80 C.
Plasmids were introduced into primary osteoclasts at day 2 of RANKL stimulation via jetPRIME (Polyplus Transfection). FLAG-La 1-408, FLAG-La 1-375 and FLAG-La 1-375 Q20A_Y24A_D33I plasmids were a gift of the Maraia Lab (NICHD). Briefly, SSB (UniProt P05455) was inserted between HindIII and BamHI the pFLAG-CMV2 vector (Sigma). “Uncleavable” La was produced by taking the FLAG-La 1-408 plasmid and making two point mutations at amino acids D371A and D374A, abrogating the caspase cleavage sites at the C-terminal region of the protein (Emory Integrated Genomics Core). siRNA were introduced into primary osteoclasts after 1 day of RANKL stimulation via Lipofectamine RNAiMAX (Thermo Fisher Scientific). Non-targeted (Cat #4390843) and SSB-targeted (Cat #4392420_ID:s13469) siRNA were introduced at a concentration of 5 ng/ml (Silencer Select, Ambion).
Fusion Assays: Osteoclast fusion in the culture systems was evaluated by fluorescence microscopy (Verma et al., J Biol Chem 293, 254-270, doi:10.1074/jbc.M117.809681 (2018)). Briefly, cells were fixed with 4% paraformaldehyde at timepoints of interest, permeabilized with 0.1% TRITON™ X-100 and blocked with 5% FBS. Cells were then stained with phallodin-ALEXAFLURO®488 and Hoechst to label cells' actin cytoskeleton and nuclei, respectively. […]

[3] = system: RAW 264.7 derived, murine osteoclasts; assay: Osteoclast fusion assay in RAW 264.7 derived osteoclasts; assay type: cell-based; conditions: overexpression from expression plasmid vs empty plasmid
Description: Osteoclasts: Elutriated monocytes from healthy donors were obtained. Cells were plated at 2.9×10^5 per cm^2 in 35 mm dishes with polymer coverslip bottoms (Ibidi #81156) for imaging or 35 mm or 10 cm dishes for biochemical experiments in complete media [α-MEM supplemented with 10% Fetal Bovine Serum (FBS) and penicillin-streptomycin-L-glutamine (Gibco Invitrogene #12571063; #26140079 and #10378016, respectively)]. Monocytes were differentiated to M2 macrophages in the presence of 100 ng/ml M-CSF for 6 days and then differentiated with 100 ng/ml M-CSF and 100 ng/ml RANKL for 3 days unless indicated otherwise. RAW 264.7 cells (ATCC, Manassas, VA, #TIB-71) were maintained in DMEM supplemented with 10% FBS to a maximum of 8 passages. […]
Fusion Assays: Osteoclast fusion in the culture systems was evaluated by fluorescence microscopy (Verma et al., J Biol Chem 293, 254-270, doi:10.1074/jbc.M117.809681 (2018)). […] Osteoclast fusion efficiency was evaluated as the number of fusion events between cells in these images, as described previously. Since regardless of the sequence of fusion events, the number of cell-to-cell fusion events required to generate syncytium with N nuclei is always equal to N−1, the fusion number index was calculated as Σ(Ni−1)=Ntotal−Nsyn, where Ni=the number of nuclei in individual syncytia and Nsyn=the total number of syncytia. […]

[4] = target: T1, La protein (Lupus autoantigen), native, …; assay: co-immunoprecipitation with α-La on magnetic beads from DTSSP-crosslinked osteoclast lysates, immunoblot

Row | Molecule | bone resorption [1] | osteoclast fusion (fusion events in syncytia with 3+ nuclei) [2] | osteoclast fusion (fusion events in syncytia with 3+ nuclei) [3] | osteoclast bone resorption ([1]; 40 nM recombinant protein, extracellular addition, vs PBS) | formation of multinucleated syncytia (osteoclast fusion) [2] | binding result [4]
1 | B1 | no effect | no effect |  |  |  | 
2 | B2 | promoted | greatly promoted | greatly promoted | dramatically increased | significantly promoted | 
3 | B3 |  |  | promoted formation of multinucleated osteoclasts as robustly as wild type La 1-375 |  | significantly promoted | 
4 | B4 |  |  |  |  |  | no binding
5 | B5 |  |  |  |  |  | no binding
